Experimental data from the supplement of paper PMC10567573.

B1: SMG5 (parent)
chain: TRKLSPGKKRCKDIKRLLVNFMYL

Variants of: B1
Assay: protein stability index of a GFP-peptide fusion (GPS, HEK-293T) (PSI 1-6); higher = more stable
Details: c terminus: a fixed tail appended
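Note: lentivirally expressed fusions sorted by FACS into six bins by GFP to DsRed ratio, PSI derived from sequencing read proportions per bin multiplied by bin number.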

Protein stability index, by site and new letter:
G7: P 1.96 | K 3.32 | N 2.08 | M 3.1 | V 2.47 | A 2.87 | R 2.47 | Q 1.86 | F 2.24 | L 4.07
N20: Y 2.56 | S 3.78 | Q 3.52 | H 3.2 | W 1.09 | V 2.79 | I 3.42 | E 3.09 | F 4.01 | K 2.12 | P 3.07 | D 3.56
L24: C 1.39 | R 2.39 | A 2.34 | F 2.53 | H 1.55 | P 2.63 | M 3 | G 2.92 | D 1.2 | I 4.07 | Q 2.04 | W 1.9 | Y 2.08 | E 1.96 | T 2.02 | S 1.98 | K 2.46
R10: S 2.03 | P 3.4 | Y 3.14 | C 2.23 | L 3.06 | D 2.02 | Q 3 | H 2.2 | N 3.09 | K 2.07 | E 2.67 | G 3.25
V19: L 3.43 | T 1.84 | P 2.62 | C 2.31 | N 2.21 | I 1.66 | D 2.34 | M 2.59 | Q 2.26 | E 1.68 | Y 4.05 | G 2.1 | S 2.12 | H 2.72
L17: H 1.3 | V 1 | D 2.24 | P 1.5 | M 2.12 | T 1.9 | S 2.56 | R 1.84 | Q 1.5 | F 3.34 | E 1.55 | Y 2.65 | A 1.77 | G 3.06 | K 2.64
K15: W 2.09 | M 2.66 | Q 1.64 | E 3.46 | V 4.58 | T 3.37 | D 1.3 | P 2.23 | L 2.08 | A 3.83 | G 1.85 | N 3.35
K12: C 3.37 | A 3.77 | Q 2.46 | D 1.41 | F 2.73 | G 2.95 | T 2.96 | M 1.74 | L 3.13 | E 4.79 | W 3.15 | N 2.14 | R 2.47 | V 2.02 | S 2.06 | P 2.41 | Y 2.96
R16: L 1.66 | G 1.71 | K 2.01 | A 2.73 | C 2.27 | M 4.38 | N 2.58 | E 2.42 | I 3.39 | D 1.6 | W 3.81 | Q 1.27 | S 1.36 | T 2.9 | P 2.24
K8: N 1.74 | S 1.98 | R 2.2 | E 3.52 | L 2.75 | H 3.49 | T 2.64 | W 2.79 | C 3.19 | G 1.05 | F 4.35
P6: Y 3.31
I14: V 2.2 | M 2.34 | H 2.23 | K 1.19 | A 2.13 | G 1.18 | E 1.32 | F 2.36 | S 2.53 | P 3.95 | C 3.55 | N 1.45 | W 2.49 | Q 1.5 | L 2.27 | T 2.05 | R 2.19 | D 1.56
K9: S 2.86 | T 2.64 | N 4.29 | M 2.31 | Y 2.15 | E 2.32 | G 1.4 | F 3 | C 2.14 | D 3.59 | P 2.4 | V 2.04 | L 3.19
